Here are results for 8 molecules from US20240059758A1 (CORAT THERAPEUTICS, published 2024).

For experiment [1], the target named is SARS-CoV-2 glycoprotein S (SARS-CoV-2, UniProt P0DTC2 14-1273). Description: cell-based or functional assay.
Experiment [2] concerns the target T1, receptor binding domain (RBD) of the S1-subunit of SARS-CoV-2 glycoprotein S (SARS-CoV-2, UniProt P0DTC2 319-541). Description: ACE2:RBD competition, antibody at 5 µg/ml.
In experiment [3] the target is T1, receptor binding domain (RBD) of the …. Briefly: ACE2:RBD competition, antibody at 0.5 µg/ml.
Experiment [4] deals with SARS-CoV-1 Spike protein (SARS-CoV-1, UniProt P59594 14-667). Description: titration ELISA.
The target in experiment [5] is T2, MERS-CoV Spike protein (MERS-CoV, UniProt K9N5Q8 18-725).
T2 sequence: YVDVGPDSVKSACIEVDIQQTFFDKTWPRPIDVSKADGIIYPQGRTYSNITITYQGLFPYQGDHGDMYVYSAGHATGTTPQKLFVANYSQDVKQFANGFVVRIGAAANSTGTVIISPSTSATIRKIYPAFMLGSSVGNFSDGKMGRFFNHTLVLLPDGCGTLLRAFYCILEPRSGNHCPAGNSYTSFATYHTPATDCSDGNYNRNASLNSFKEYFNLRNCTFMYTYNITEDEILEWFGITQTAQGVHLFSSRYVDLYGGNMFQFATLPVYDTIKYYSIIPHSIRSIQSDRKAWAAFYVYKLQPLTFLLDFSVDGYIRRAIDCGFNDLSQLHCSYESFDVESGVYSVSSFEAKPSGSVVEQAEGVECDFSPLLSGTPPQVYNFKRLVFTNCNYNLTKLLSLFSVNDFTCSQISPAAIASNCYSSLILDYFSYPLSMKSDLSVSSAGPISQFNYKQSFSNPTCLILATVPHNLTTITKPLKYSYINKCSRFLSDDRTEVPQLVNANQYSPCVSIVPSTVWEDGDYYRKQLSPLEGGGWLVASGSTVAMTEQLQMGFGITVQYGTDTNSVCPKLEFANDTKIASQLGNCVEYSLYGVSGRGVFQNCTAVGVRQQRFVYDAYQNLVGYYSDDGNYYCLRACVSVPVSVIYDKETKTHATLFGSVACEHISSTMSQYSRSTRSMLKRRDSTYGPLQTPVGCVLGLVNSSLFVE
Briefly: titration ELISA. (In an ELISA, binding on a coated surface is turned into a signal by an enzyme label.)

Experiment [6] addresses T3, HCov-HKU1 Spike protein (HCoV-HKU1, UniProt Q5MQD0 13-760).
T3 sequence: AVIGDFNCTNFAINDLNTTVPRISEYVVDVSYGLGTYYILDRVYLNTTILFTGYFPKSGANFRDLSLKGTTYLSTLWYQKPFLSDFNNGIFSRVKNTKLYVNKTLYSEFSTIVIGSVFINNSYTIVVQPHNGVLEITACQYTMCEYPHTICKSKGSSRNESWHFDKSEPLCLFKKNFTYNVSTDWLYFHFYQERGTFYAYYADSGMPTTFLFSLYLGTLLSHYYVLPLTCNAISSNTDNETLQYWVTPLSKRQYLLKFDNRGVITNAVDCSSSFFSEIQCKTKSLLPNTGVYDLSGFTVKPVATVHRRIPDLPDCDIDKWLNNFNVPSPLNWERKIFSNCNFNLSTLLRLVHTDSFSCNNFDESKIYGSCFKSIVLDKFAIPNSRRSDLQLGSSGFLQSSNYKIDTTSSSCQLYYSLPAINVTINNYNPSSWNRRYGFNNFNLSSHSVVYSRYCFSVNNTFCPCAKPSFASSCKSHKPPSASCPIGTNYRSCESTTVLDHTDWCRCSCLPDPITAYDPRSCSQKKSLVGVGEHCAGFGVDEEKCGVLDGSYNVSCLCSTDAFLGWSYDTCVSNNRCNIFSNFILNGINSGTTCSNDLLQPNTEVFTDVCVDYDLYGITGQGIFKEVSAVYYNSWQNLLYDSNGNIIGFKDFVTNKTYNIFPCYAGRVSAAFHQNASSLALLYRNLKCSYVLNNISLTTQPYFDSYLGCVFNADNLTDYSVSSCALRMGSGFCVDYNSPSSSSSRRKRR
Briefly: titration ELISA.

Experiment [7] concerns the target T4, HCoV-229E Spike protein (HCoV-229E, UniProt P15423 16-560).
T4 sequence: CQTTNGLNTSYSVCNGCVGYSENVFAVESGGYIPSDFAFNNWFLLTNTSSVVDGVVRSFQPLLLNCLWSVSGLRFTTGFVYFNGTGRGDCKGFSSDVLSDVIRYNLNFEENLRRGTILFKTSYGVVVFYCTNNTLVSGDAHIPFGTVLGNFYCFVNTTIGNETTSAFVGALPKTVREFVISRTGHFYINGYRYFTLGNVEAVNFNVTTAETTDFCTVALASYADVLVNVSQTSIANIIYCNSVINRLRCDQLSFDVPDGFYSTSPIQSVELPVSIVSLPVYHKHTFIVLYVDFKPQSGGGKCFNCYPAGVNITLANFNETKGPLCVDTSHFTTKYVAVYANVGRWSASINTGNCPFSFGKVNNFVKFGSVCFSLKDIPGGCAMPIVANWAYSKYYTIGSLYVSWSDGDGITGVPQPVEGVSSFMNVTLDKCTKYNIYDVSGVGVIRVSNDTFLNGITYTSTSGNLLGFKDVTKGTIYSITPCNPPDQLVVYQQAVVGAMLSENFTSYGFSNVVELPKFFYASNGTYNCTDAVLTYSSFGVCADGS
Description: titration ELISA.

In experiment [8] the target is T5, HCoV-NL63 Spike protein (HCoV-NL63, UniProt Q6Q1S2 19-717).
T5 sequence: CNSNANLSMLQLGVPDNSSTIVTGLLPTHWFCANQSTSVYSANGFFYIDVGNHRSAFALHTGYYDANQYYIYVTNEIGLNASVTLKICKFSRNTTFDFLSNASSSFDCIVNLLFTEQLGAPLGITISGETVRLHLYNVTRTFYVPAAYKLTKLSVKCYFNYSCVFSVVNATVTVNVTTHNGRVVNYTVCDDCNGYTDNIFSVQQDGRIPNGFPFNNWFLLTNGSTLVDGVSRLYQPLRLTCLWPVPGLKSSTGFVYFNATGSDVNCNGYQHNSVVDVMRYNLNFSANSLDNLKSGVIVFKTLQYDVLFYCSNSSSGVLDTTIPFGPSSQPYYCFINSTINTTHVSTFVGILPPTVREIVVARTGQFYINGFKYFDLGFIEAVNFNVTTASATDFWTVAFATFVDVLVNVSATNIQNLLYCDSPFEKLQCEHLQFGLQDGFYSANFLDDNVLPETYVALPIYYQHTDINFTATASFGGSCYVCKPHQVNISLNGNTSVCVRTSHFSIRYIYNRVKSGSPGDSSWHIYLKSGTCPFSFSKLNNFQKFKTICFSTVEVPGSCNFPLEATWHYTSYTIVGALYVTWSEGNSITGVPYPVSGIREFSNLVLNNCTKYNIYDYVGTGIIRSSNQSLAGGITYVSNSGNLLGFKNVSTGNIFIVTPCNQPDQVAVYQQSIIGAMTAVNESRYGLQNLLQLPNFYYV
Briefly: titration ELISA.

Experiment [9] has as its target receptor binding domain (RBD) of the S1-subunit of SARS-CoV-2 glycoprotein S (SARS-CoV-2, UniProt P0DTC2 319-541). Briefly: RBD-binding quality as compared to STE90-C11, wt.

B1: YU505-A02 (antibody, V domains shown)
VH: QVQLVESGAEVKKPGSSVKVSCKASGGTFSSYAISWVRQAPGQGLEWMGGIIPIFGTANYAQKFQGRVTITADESTSTAYMELSSLRSEDTAVYYCARQIWAYDSSGYPVPAEYFQHWGQGTLVTVSS
VL: QSVLTQPPSVSGAPGQRVTISCTGSSSNIGAGYDVHWYQQLPGTAPKLLIYGNSNRPSGVPDRFSGSKSGTSASLAITGLQAEDEADYYCQSYDSSLSGVVFGGGTKLTVL
For B1, in [1], the “Confluence Score in VERO E6 cell assay” value is greater than 99%. Besides, in experiment [2], the “ACE2 bound to RBD at 5 µg/ml antibody” value was less than 30%. In addition, the “ACE2 bound to RBD at 0.5 µg/ml antibody” value in experiment [3] is less than 60%.

B2: YU505-A02 (antibody, V domains shown)
VH: QVQLVESGAEVKKPGSSVKVSCKASGGTFSSYAISWVRQAPGQGLEWMGGIIPIFGTANYAQKFQGRVTITADESTSTAYMELSSLRSEDTAVYYCARQIWAYDSSGYPVPAEYFQHWGQGTLVTVSS
VL: QSVLTQPPSVSGAPGQRVTISCTGSSSNIGAGYDVHWYQQLPGTAPKLLIYGNSNRPSGVPDRFSGSKSGTSASLAITGLQAEDEADYYCQSYDSSLSGVVFGGGTKLTVL
As for B2, the binding result in experiment [4], in experiment [5], in [6], in experiment [7] and in [8] was “no binding” in each case.

B3: hybrid antibody: VL YU537-H11 (SEQ ID No. 402) with VH STE90-C11 (SEQ ID No. 1305) (antibody, V domains shown)
VH: QVQLVESGGGLVQPGGSLRLSCAASGLTVSSNYMSWVRQAPGKGLEWVSVIYSGGSTYYADSVKGRFTISRDDSKNTLYLQMNSLRAEDTAVYYCARDVADAFDIWGQGTMVTVSS
VL: QSVLTQPPSVSAAPGQKVTISCSGSSSNIGNNYVSWYQQLPGTAPKLLIYDTNKRPSGIPDRFSGSKSGTSATLGITGLQTGDEADYYCATWDSSLSVGVFGGGTKLTVL
On to B3, for which the binding result in experiment [9] is “binds”.

B4: YU537-H11 (antibody, V domains shown)
VH: EVQLLESGGGLIQPGGSLRLSCAASGLTVSSNYMSWVRQAPGKGLEWVSVIYSGGSTYYADSVKGRFTISRDNSKNALYLQMNSLRAEDTAVYYCARGESGSPYGMDVWGQGTLVTVSS
VL: QSVLTQPPSVSAAPGQKVTISCSGSSSNIGNNYVSWYQQLPGTAPKLLIYDTNKRPSGIPDRFSGSKSGTSATLGITGLQTGDEADYYCATWDSSLSVGVFGGGTKLTVL
With B4, the binding result in experiment [4], in experiment [5], in experiment [6], in experiment [7] and in experiment [8] was “no binding” in each case.

B5: STE90-C11 (antibody, V domains shown)
VH: QVQLVESGGGLVQPGGSLRLSCAASGLTVSSNYMSWVRQAPGKGLEWVSVIYSGGSTYYADSVKGRFTISRDDSKNTLYLQMNSLRAEDTAVYYCARDVADAFDIWGQGTMVTVSS
VL: DIVMTQSPSFLSASVGDRVTITCRASQGISSYLAWYQQKPGKAPKLLIYAASTLQSGVPSRFSGSGSGTEFTLTISSLQPEDFATYYCQQLNSYPPFTFGPGTKVDIK
On to B5, for which the binding result in experiment [4], in experiment [5], in experiment [6], in experiment [7] and in [8] was “no binding” throughout.

B6: YU505-F05 (antibody, V domains shown)
VH: EVQLLESGGGVVQPGRSLRLSCAASGFTFSSYGMHWVRQAPGKGLEWVAVMSYDGSKKYYADSVKGRFTISRDNSKNTLYLQMNSLRAEDTAVYYCVTQGMDVWGQGTLVTVSS
VL: QSVLTQPPSVSVAPGKTARITCGGNNIGSKSVHWYQQKPGQAPVLVIYYISDRPSGIPERFSGSNSGNTATLTISRVEAGDEAAYYCHVWDSSSDHVVFGGGTKLTVL
For the molecule B6, the “Confluence Score in VERO E6 cell assay” value in experiment [1] is greater than 95%. Further, in [2], the “ACE2 bound to RBD at 5 µg/ml antibody” value is less than 30%. In addition, the “ACE2 bound to RBD at 0.5 µg/ml antibody” value in [3] was less than 60%.

B7: YU505-A01 (antibody, V domains shown)
VH: QVQLVQSGAEVKKPGASVKVSCKASGYTFTSYYMHWVRQAPGQGLEWMGIINPSGGSTSYAQKFQGRVTMTRDTSTSTVYMELSSLRSEDTAVYYCARDRHYYDSSGSSQATFLFDYWGQGTLVTVSS
VL: QSVLTQPPSVSGAPGQRVTISCTGSSSNIGAGYDVHWYQQLPGTAPKLLIYGNSNRPSGVPDRFSGSKSGTSASLAITGLQAEDEADYYCQSYDSSLNVFGTGTKLTVL
Consider B7, for which the “Confluence Score in VERO E6 cell assay” value in experiment [1] was greater than 99%. For the same molecule, the “ACE2 bound to RBD at 5 µg/ml antibody” value in [2] was less than 30%. The “ACE2 bound to RBD at 0.5 µg/ml antibody” value in experiment [3] was less than 60%.

B8: YU505-E01 (antibody, V domains shown)
VH: QVQLVQSGAEVKKPGSSVKVSCKASGGTFSSYSIVWVRQAPGQGLEWMGGIIPIFGTTNYAQKFQGRVTITADESTSTAFMELSNLKSEDTAVYFCARSLGATRDYWGQGTLVTVSS
VL: SYVLTQPPSVSEAPRQRVTISCSGSSSNIGNNAVNWYQQLPGKAPKLLIYYDDLLPSGVSDRFSGSKSGTSASLAISGLQSEDEADYYCAAWDDSLNGPVFGGGTKVTVL
As for B8, the “Confluence Score in VERO E6 cell assay” value in [1] was greater than 98%. Besides, in [2], the “ACE2 bound to RBD at 5 µg/ml antibody” value was less than 25%. Also, the “ACE2 bound to RBD at 0.5 µg/ml antibody” value in experiment [3] is less than 50%.
